Series [1] deals with the molecule itself. In words: cell-based or functional assay.
Series [2] deals with the molecule itself. In words: chromatofocussing; protein purified in LDAO, detergent exchanged to Triton X-100 by size-exclusion chromatography, then chromatofocussing; pI compared with that of the pentamer. For orientation: SEC sorts molecules by how far they enter the pores of the column.
Series [3] deals with the molecule itself. In words: native gel or EMSA; blue native gel (8-16 % gradient); pure G22C MscL incubated 1 h at room temperature with urea, guanidinium hydrochloride or trifluoroethanol (various detergents also screened). (In general: A gel shift assay detects complexes by their altered migration in electrophoresis.)
Series [4] has as its target T1, G22C MscL, StrepII-tagged, labelled with the light switch at cysteine 22 (E. coli, UniProt P0A742 1-136, G22C, cysteine 22 alkylated with the light switch (iodoacetate bearing the photocleavable protecting group 6-nitroveratryl alcohol)).
T1 construct: MscL, mechanosensitive channel of large conductance, E. coli; also called light switch-labeled-StrepII-tagged MscL; not shown: StrepII, C-terminal, kept
T1 sequence (looked up): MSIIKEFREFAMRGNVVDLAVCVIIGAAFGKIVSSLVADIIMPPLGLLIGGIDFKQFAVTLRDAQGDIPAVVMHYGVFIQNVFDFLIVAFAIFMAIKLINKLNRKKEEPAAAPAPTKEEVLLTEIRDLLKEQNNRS
In words: sequential affinity chromatography (Ni-NTA, then Streptactin) + chromatofocussing; 6His-tagged and StrepII-tagged proteins purified in LDAO, mixed 1:1 (v/v), 45 min at room temperature, detergent exchanged to Triton X-100 by size exclusion; homopentamers removed on the two columns, heteropentamers separated on Mono P by pI. As to conditions: both partners purified.

Series [5] concerns the molecule itself. In words: CW-EPR, intersubunit spin-spin interaction (spectral broadening); heteropentamers with 1, 2 or 3 light switches reconstituted in asolectin liposomes, room temperature, X-band; maximally (10:1) against minimally (1:10) spin-labelled channels.

B1: G22C-Strep MscL, unlabelled, after detergent exchange from LDAO to Triton X-100 (natural protein, E. coli, UniProt P0A742 1-136, looked up)
chain: MSIIKEFREFAMRGNVVDLAVCVIIGAAFGKIVSSLVADIIMPPLGLLIGGIDFKQFAVTLRDAQGDIPAVVMHYGVFIQNVFDFLIVAFAIFMAIKLINKLNRKKEEPAAAPAPTKEEVLLTEIRDLLKEQNNRS
notes: MscL, mechanosensitive channel of large conductance, E. coli
A word on the stoichiometry N: it is a count of units in the complex or per binding partner. B1: in series [1], the “calcein dequenching assay of MscL reconstituted into liposomes, percent release; after exchange of LDAO to Triton X-100 (same protein:lipid ratio)” value is 85%. In addition, the “stoichiometry N” value in series [2] is 5.

B2: G22C MscL (mechanosensitive channel of large conductance, E. coli), pure, unlabelled, as run on the blue native gel (natural protein, UniProt P0A742 1-136, looked up)
chain: MSIIKEFREFAMRGNVVDLAVCVIIGAAFGKIVSSLVADIIMPPLGLLIGGIDFKQFAVTLRDAQGDIPAVVMHYGVFIQNVFDFLIVAFAIFMAIKLINKLNRKKEEPAAAPAPTKEEVLLTEIRDLLKEQNNRS
notes: MscL, mechanosensitive channel of large conductance, E. coli; The denaturant treatment stands in the methods right after the isolation of the 6His-tagged protein, so the 6His form is likely; source: E. coli PB104 (mscL-null), p1BAD vector, purified from membrane vesicles
As to B2, in series [3], the “stoichiometry N” value was 5.

B3: G22C MscL, 6His-tagged, labelled with the EPR spin label at cysteine 22 (natural protein, E. coli, UniProt P0A742 1-136, looked up)
chain: MSIIKEFREFAMRGNVVDLAVCVIIGAAFGKIVSSLVADIIMPPLGLLIGGIDFKQFAVTLRDAQGDIPAVVMHYGVFIQNVFDFLIVAFAIFMAIKLINKLNRKKEEPAAAPAPTKEEVLLTEIRDLLKEQNNRS
modifications: cysteine 22 labelled with (1-oxyl-2,2,5,5-tetramethylpyrrolin-3-methyl) methanethiosulfonate spin label (maximally, 10:1, or minimally, 1:10 label:protein)
notes: MscL, mechanosensitive channel of large conductance, E. coli; also called EPR spin-labeled- His-tagged MscL; source: E. coli PB104 (mscL-null), p1BAD vector, purified in LDAO (Ni-NTA), spin-labelled in detergent solution; not shown: 6His, C-terminal, kept
On to B3, for which the binding result in series [4] and in series [5] was “binds” each time.

B4: A28C MscL labelled with the EPR spin label at cysteine 28 (natural protein, E. coli, UniProt P0A742 1-136, looked up)
chain: MSIIKEFREFAMRGNVVDLAVGVIIGACFGKIVSSLVADIIMPPLGLLIGGIDFKQFAVTLRDAQGDIPAVVMHYGVFIQNVFDFLIVAFAIFMAIKLINKLNRKKEEPAAAPAPTKEEVLLTEIRDLLKEQNNRS
modifications: cysteine 28 labelled with (1-oxyl-2,2,5,5-tetramethylpyrrolin-3-methyl) methanethiosulfonate spin label
notes: MscL, mechanosensitive channel of large conductance, E. coli; source: E. coli PB104 (mscL-null), p1BAD vector, purified, spin-labelled
As for B4, the binding result in series [4] and in series [5] was “binds” each time.

B5: I24C MscL labelled with the EPR spin label at cysteine 24 (natural protein, E. coli, UniProt P0A742 1-136, looked up)
chain: MSIIKEFREFAMRGNVVDLAVGVCIGAAFGKIVSSLVADIIMPPLGLLIGGIDFKQFAVTLRDAQGDIPAVVMHYGVFIQNVFDFLIVAFAIFMAIKLINKLNRKKEEPAAAPAPTKEEVLLTEIRDLLKEQNNRS
modifications: cysteine 24 labelled with (1-oxyl-2,2,5,5-tetramethylpyrrolin-3-methyl) methanethiosulfonate spin label
notes: as for B4
Consider B5, for which the binding result in series [4] and in series [5] was “binds” throughout.
